This note sets out measurements from publication PMC6201861, “Generation and characterization of novel recombinant anti-hERG1 scFv antibodies for cancer molecular imaging” (Oncotarget, 2018).

The target of assay [1] is T1, hERG1 potassium channel expressed on hERG1-transfected HEK 293 cells (Homo sapiens (Human)., UniProt Q12809).
T1 construct: human ether-a-go-go-related gene-1 (hERG1, Kv 11.1) potassium channel; cell culture details are in the Supplementary Materials; also called HEK-hERG1; HEK 293 hERG1; source: HEK 293, transfected, on cells
The experiment in a line: immunostaining of cells or tissue; indirect immunofluorescence on fixed HEK-hERG1 and HEK-Mock cells. As to conditions: one partner purified.

Assay [2] deals with T2, S5-Pore peptide (Homo sapiens (Human).).
T2 construct: peptide of the extracellular S5-P loop of the human hERG1 (Kv 11.1) potassium channel; also called antigenic peptide; raising peptide
T2 chain: EQPHMDSRIGWLHN
The assay is described as follows: SPR; Biacore T100; S5-Pore peptide amine-coupled to a CM5 chip; scFv flowed at 2.5, 5, 10, 20, 40 ug/ml; contact 120 s, dissociation 600 s, 30 ul/min; 1:1 binding model for scFv-hERG1, two-state reaction model for scFv-hERG1-Cys. As to conditions: both partners purified. (Surface plasmon resonance follows binding to a sensor surface in real time, without labels.)

Assay [3] deals with T2, S5-Pore peptide. The assay is described as follows: ELISA; S5-Pore peptide as coating antigen; 0.1 to 10 ug of scFv (Alexa488 conjugate at 1 ug); revealed with anti-6xHis antibody then anti-mouse IgG-HRP; OD450. The following applies: both partners purified.
Assay [4] has as its target T1, hERG1 potassium channel expressed on …. The experiment in a line: immunostaining of cells or tissue; direct immunofluorescence with the Alexa 488 conjugate on fixed cells (HEK-hERG1, HEK-Mock; PANC-1 in 2D and as spheroids). As to conditions: one partner purified.
Assay [5] addresses T3, hERG1 potassium channel endogenously expressed on cancer cell lines (Homo sapiens (Human)., UniProt Q12809).
T3 construct: human ether-a-go-go-related gene-1 (hERG1, Kv 11.1) potassium channel; also called hERG1 on PANC-1 cells; Kv 11.1; source: endogenous, on PANC-1 cells (2D and spheroids); in the viability tests also MDA-MB231, MIAPaCa-2, HCT-116
The assay is described as above. As to conditions: one partner purified.

T1 sequence (Q12809 whole entry): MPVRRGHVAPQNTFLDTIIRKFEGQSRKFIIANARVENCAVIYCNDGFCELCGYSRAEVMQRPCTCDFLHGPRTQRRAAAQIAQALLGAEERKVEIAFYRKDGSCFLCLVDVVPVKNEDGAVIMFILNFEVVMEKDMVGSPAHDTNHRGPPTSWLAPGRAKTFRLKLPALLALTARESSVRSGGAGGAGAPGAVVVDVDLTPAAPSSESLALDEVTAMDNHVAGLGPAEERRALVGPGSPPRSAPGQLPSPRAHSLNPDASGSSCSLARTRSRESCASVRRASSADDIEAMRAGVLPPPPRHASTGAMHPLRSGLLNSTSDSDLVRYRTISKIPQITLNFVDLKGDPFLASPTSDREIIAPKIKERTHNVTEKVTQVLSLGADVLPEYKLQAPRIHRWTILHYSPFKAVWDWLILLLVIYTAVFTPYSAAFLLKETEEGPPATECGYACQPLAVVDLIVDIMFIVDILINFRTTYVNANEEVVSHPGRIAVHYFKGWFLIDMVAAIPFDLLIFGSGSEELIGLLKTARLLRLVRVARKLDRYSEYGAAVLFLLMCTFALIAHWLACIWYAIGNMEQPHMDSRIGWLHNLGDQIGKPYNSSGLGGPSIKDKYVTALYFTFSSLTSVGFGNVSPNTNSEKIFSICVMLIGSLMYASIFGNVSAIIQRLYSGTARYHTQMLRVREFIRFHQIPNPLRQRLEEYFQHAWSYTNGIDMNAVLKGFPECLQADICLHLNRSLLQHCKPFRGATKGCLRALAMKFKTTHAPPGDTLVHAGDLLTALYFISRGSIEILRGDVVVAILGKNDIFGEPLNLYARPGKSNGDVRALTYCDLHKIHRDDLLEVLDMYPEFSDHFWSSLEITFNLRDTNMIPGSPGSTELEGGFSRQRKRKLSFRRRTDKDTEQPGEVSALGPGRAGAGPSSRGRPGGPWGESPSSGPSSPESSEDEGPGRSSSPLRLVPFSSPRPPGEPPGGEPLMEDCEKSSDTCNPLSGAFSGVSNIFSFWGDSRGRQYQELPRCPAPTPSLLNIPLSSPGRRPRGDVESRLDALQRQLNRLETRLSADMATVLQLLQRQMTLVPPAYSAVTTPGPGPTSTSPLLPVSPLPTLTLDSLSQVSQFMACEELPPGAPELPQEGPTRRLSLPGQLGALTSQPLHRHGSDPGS
T3 sequence (Q12809 whole entry): as above

B1: scFv-hERG1-Cys (scFv, V domains shown)
VH: EVQLQQSGPELVKPGASVKISCKTSGYTFTEYTVHWVKQSHGKSLEWIGGINPNGGTTYNQKFKGKATLTIDKSSSSAFMELRSLTSEDSAVYYCATGWGPDYWGQGTTLTVSS
VL: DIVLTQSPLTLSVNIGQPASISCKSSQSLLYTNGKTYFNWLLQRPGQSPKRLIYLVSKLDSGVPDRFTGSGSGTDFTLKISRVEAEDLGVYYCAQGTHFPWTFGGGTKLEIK
notes: numbers count on: Kabat scheme of the VH; as the linker of m1; as the VL of m1; also called mutagenized scFv-hERG1; scFv-Cys; source: P. pastoris GS115 (pPIC9K), purified from culture supernatant (HisTrap HP)
Take B1: the binding result in assay [1] was “binds”. Besides, binding in the assay with S5-Pore peptide [2] was put at a Kd of 61.8 nM. Besides, the “fold binding against scFv-hERG1 (ELISA O.D.)” value with S5-Pore peptide [3] was around 2 fold.

B2: scFv-hERG1-Cys-Alexa488 (scFv, V domains shown)
VH: EVQLQQSGPELVKPGASVKISCKTSGYTFTEYTVHWVKQSHGKSLEWIGGINPNGGTTYNQKFKGKATLTIDKSSSSAFMELRSLTSEDSAVYYCATGWGPDYWGQGTTLTVSS
VL: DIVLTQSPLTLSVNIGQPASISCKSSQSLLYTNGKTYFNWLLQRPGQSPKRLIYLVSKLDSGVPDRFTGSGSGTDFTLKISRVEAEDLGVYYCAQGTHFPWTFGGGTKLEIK
notes: numbers count on: Kabat scheme of the VH; as the linker of m1; as the VL of m1; Same protein as m2, with the fluorophore
Turning to B2, the binding result in assay [4] and in assay [5] was “binds” each time.

For orientation: Kd means the constant that tells how readily two partners part at equilibrium. Read a low Kd as higher affinity.
